Target: T1, endogenous PKD1 from 293T cells (human, UniProt Q15139 1-912)
T1 construct: also called PKD1/PKCµ
T1 sequence (looked up): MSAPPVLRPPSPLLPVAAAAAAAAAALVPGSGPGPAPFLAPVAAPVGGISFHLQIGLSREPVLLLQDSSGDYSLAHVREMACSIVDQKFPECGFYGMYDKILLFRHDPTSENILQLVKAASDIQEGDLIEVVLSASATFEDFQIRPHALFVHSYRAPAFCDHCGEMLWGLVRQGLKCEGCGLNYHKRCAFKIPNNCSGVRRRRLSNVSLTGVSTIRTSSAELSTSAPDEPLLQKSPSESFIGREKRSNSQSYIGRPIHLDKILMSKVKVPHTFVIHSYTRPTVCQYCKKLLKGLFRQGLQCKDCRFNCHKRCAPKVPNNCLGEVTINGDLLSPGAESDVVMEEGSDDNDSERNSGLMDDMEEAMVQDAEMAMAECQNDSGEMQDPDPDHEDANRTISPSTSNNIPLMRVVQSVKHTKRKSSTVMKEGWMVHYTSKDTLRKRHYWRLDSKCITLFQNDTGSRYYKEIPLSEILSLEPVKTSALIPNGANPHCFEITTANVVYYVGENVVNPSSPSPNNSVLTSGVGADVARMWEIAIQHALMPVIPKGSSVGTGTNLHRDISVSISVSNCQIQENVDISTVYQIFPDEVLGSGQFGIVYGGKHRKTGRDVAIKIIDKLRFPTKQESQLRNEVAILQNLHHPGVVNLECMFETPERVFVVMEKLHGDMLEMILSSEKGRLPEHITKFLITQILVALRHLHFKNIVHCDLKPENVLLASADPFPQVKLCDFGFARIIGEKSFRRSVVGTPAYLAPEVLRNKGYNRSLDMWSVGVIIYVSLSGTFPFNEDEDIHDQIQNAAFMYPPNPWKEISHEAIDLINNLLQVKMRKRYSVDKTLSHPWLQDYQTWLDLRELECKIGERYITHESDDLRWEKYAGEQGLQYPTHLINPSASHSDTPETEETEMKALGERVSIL
Assay: co-immunoprecipitation of endogenous proteins from 293T cell lysates, untreated or treated with IFN-α

binding result: no binding
B1: endogenous IFNAR1 from 293T cells (receptor, human, UniProt P17181 28-557, looked up)
chain: KNLKSPQKVEVDIIDDNFILRWNRSDESVGNVTFSFDYQKTGMDNWIKLSGCQNITSTKCNFSSLKLNVYEEIKLRIRAEKENTSSWYEVDSFTPFRKAQIGPPEVHLEAEDKAIVIHISPGTKDSVMWALDGLSFTYSLVIWKNSSGVEERIENIYSRHKIYKLSPETTYCLKVKAALLTSWKIGVYSPVHCIKTTVENELPPPENIEVSVQNQNYVLKWDYTYANMTFQVQWLHAFLKRNPGNHLYKWKQIPDCENVKTTQCVFPQNVFQKGIYLLRVQASDGNNTSFWSEEIKFDTEIQAFLLPPVFNIRSLSDSFHIYIGAPKQSGNTPVIQDYPLIYEIIFWENTSNAERKIIEKKTDVTVPNLKPLTVYCVKARAHTMDEKLNKSSVFSDAVCEKTKPGNTSKIWLIVGICIALFALPFVIYAAKVFLRCINYVFFPSLKPSSSIDEYFSEQPLKNLLLSTSEEQIEKCFIIENISTIATVEETNQTDEDHKKYSSQTSQDSGNYSNEDESESKTSEELQQDFV
notes: also called the receptor
